Consider 4 molecules from paper PMC11535393, “Combining systems and synthetic biology for in vivo enzymology” (The EMBO Journal, 2024).

For one series, the target named is T1, PaCrtI (Pantoea ananatis, UniProt P21685).
T1 construct: gene crtI; full-length, yeast codon-optimized synthetic gene, expressed in Saccharomyces cerevisiae under TDH3p; V5 tag (CrtI-V5 in western blot)
As to the kind of experiment: in vivo lycopene flux vs intracellular phytoene in yeast strains, Michaelis-Menten fit. Type of series: cell-based. The settings on record: read-out: K1/2cell; in living S. cerevisiae, exponential growth, 28 °C, medium pH 5.0; TDH3p expression; total intracellular substrate concentration; lower limit only, no saturation.

Series [1] relates to CC(C)=CCC/C(C)=C/CC/C(C)=C/CC/C(C)=C/COP(=O)(O)OP(=O)(O)O. In words: cells, lysate or membranes. The settings on record: in living S. cerevisiae, exponential growth, 28 °C, medium pH 5.0, PGI1p expression, total intracellular substrate concentration, partial saturation.
Substrate in series [2]: CC(C)=CCC/C(C)=C/CC/C(C)=C/CC/C(C)=C/C=C\C=C(/C)CC/C=C(\C)CC/C=C(\C)CCC=C(C)C
In words: in vivo lycopene flux vs intracellular phytoene in yeast strains, Michaelis-Menten fit. Type of series: cell-based, Phaffia rhodozyma. Conditions: in living S. cerevisiae, exponential growth, 28 °C, medium pH 5.0, PGK1p expression, total intracellular substrate concentration.

Substrate in series [3]: CC(C)=CCC/C(C)=C/CC/C(C)=C/CC/C(C)=C/C=C\C=C(/C)CC/C=C(\C)CC/C=C(\C)CCC=C(C)C
Described as above. Type of series: cell-based, Blakeslea trispora. The settings on record: in living S. cerevisiae, exponential growth, 28 °C, medium pH 5.0, PGI1p expression, total intracellular substrate concentration, enzyme level slightly higher in low-phytoene strains.

T1 sequence (P21685 whole entry): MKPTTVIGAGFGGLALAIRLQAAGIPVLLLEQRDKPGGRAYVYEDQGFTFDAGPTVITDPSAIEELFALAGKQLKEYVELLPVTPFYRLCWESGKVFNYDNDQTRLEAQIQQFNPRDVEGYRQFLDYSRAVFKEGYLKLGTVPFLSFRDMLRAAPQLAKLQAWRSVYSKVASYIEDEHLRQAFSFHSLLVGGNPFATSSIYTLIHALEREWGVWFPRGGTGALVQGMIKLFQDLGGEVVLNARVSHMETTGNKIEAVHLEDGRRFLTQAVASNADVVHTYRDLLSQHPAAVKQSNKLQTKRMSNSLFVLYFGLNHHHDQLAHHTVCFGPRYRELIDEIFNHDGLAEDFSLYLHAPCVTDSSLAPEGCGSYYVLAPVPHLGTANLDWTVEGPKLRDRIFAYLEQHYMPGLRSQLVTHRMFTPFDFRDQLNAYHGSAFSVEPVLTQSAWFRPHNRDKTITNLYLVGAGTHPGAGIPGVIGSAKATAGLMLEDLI

In the case of `CC(C)=CCC/C(C)=C/CC/C(C)=C/CC/C(C)=C/C=C\C=C(/C)CC/C=C(\C)CC/C=C(\C)CCC=C(C)C` [phytoene], the Km on PaCrtI was above 560 µM. PaCrtB (Pantoea ananatis): in series [1], the K0.5 worked out at 19 ± 3 µM and the kcat was determined as 6 ± 1 s⁻¹.

B1: XdCrtI (Phaffia rhodozyma) (protein)
chain: MGKEKDQDKPTAIIVGCGIGGIATAARLAKEGFQVTVFEKNDYSGGRCSLIERDGYRFDQGPSLLLLPDLFKQTFEDLGEKMEDWVDLIKCEPNYVCHFHDEETFTLSTDMALLKREVERFEGKDGFDRFLSFIQEAHRHYELAVVHVLQKNFPGFAAFLRLQFIGQILALHPFESIWTRVCRYFKTDRLRRVFSFAVMYMGQSPYSAPGTYSLLQYTELTEGIWYPRGGFWQVPNTLLQIVKRNNPSAKFNFNAPVSQVLLSPAKDRATGVRLESGEEHHADVVIVNADLVYASEHLIPDDARNKIGQLGEVKRSWWADLVGGKKLKGSCSSLSFYWSMDRIVDGLGGHNIFLAEDFKGSFDTIFEELGLPADPSFYVNVPSRIDPSAAPEGKDAIVILVPCGHIDASNPQDYNKLVARARKFVIQTLSAKLGLPDFEKMIVAEKVHDAPSWEKEFNLKDGSILGLAHNFMQVLGFRPSTRHPKYDKLFFVGASTHPGTGVPIVLAGAKLTANQVLESFDRSPAPDPNMSLSVPYGKPLKSNGTGIDSQVQLKFMDLERWVYLLVLLIGAVIARSVGVLAF
notes: full-length, gene amplified from a plasmid, expressed in Saccharomyces cerevisiae under PGK1p; V5 tag (CrtI-V5 in western blot)
For B1, in series [2], the K0.5 is 380 ± 49 µM and the kcat stood at 0.030 ± 0.006 s⁻¹.

B2: BtCrtI (Blakeslea trispora) (protein)
chain: MSDQKKHIVVIGAGIGGTATAARLAREGFRVTVVEKNDFSGGRCSFIHHDGHRFDQGPSLYLMPKLFEDAFADLDERIGDHLDLLRCDNNYKVHFDDGDAVQLSSDLTKMKGELDRIEGPLGFGRFLDFMKETHVHYEQGTFIAIKRNFETIWDLIRLQYVPEIFRLHLFGKIYDRASKYFQTKKMRMAFTFQTMYMGMSPYDAPAVYSLLQYTEFAEGIWYPRGGFNMVVQKLESIASKKYGAEFRYQSPVAKINTVDKDKRVTGVTLESGEVIEADAVVCNADLVYAYHHLLPPCNWTKKTLASKKLTSSSISFYWSMSTKVPQLDVHNIFLAEAYKESFDEIFNDFGLPSEASFYVNVPSRIDESAAPPNKDSIIVLVPIGHMKSKTGNSAEENYPELVNRARKMVLEVIERRLGVNNFANLIEHEEVNDPSVWQSKFNLWRGSILGLSHDVFQVLWFRPSTKDSTNRYDNLFFVGASTHPGTGVPIVLAGSKLTSDQVCKSFGQNPLPRKLQDSQKKYAPEQTSKTESHWIYYCLACYFVTFLFFYFFPRDDTTTPASFINQLLPNVFQVQNSNDIRI
notes: full-length, yeast codon-optimized synthetic gene, expressed in Saccharomyces cerevisiae under PGI1p; V5 tag (CrtI-V5 in western blot)
As to B2, in series [3], the K0.5 turned out to be 41 ± 12 µM.

Usually kcat stands for the maximal rate divided by the concentration of active sites.
